The target of this assay is T1, dipeptidylpeptidase IV (DPPIV) expressed on rat proximal tubular epithelial cells (PTEC) (rat, UniProt P14740 1-767).
T1 construct: whole, on cells; also called K9/9 antigen; glycoprotein expressed on rat glomerular epithelial cells and PTEC
The assay can be described thus: in vivo biodistribution of 125I-labelled protein in rats, 48 h after tail vein injection.

T1 sequence (P14740 whole entry): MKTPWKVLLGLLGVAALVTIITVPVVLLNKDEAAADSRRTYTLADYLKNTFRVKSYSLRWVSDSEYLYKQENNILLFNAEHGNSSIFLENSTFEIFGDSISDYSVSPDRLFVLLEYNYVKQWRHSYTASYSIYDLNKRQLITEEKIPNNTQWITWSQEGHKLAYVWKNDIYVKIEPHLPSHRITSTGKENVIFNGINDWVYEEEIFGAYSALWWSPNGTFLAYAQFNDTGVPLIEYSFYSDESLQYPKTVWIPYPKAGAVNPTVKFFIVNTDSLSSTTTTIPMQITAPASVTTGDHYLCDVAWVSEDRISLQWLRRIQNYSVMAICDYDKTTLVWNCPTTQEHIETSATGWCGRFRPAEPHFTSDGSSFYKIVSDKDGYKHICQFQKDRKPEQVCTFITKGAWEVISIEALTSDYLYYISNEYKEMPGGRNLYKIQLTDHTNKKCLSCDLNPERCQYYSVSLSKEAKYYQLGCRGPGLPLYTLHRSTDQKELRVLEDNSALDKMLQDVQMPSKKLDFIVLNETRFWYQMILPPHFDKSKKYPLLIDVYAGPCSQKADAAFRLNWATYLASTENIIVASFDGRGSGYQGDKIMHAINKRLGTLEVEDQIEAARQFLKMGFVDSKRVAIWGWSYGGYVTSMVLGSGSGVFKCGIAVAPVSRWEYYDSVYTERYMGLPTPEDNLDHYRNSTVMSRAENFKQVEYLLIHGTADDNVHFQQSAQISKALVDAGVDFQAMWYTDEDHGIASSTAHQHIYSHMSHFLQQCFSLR
Protocol: Biodistribution studies were performed using standard procedures for determining tissue distribution of injected radiolabeled proteins (41, 33). […] After 48 h, a blood sample was taken, and major organs were removed, shredded, washed in PBS containing 10 mM EDTA, weighed, and counted. Targeting specificity was determined as percentage of cpm per gram of tissue divided by total injected cpm per gram of body weight.

B1: soluble untargeted Crry (sCrry) (other, rat, UniProt Q63135 36-482, looked up)
chain: GQCPAPPLFPYAKPINPTDESTFPVGTSLKYECRPGYIKRQFSITCEVNSVWTSPQDVCIRKQCETPLDPQNGIVHVNTDIRFGSSITYTCNEGYRLIGSSSAMCIISDQSVAWDAEAPICESIPCEIPPSIPNGDFFSPNREDFHYGMVVTYQCNTDARGKKLFNLVGEPSIHCTSIDGQVGVWSGPPPQCIELNKCTPPHVENAVIVSKNKSLFSLRDMVEFRCQDGFMMKGDSSVYCRSLNRWEPQLPSCFKVKSCGAFLGELPNGHVFVPQNLQLGAKVTFVCNTGYQLKGNSSSHCVLDGVESIWNSSVPVCEQVICKLPQDMSGFQKGLQMKKDYYYGDNVALECEDGYTLEGSSQSQCQSDASWDPPLPKCVSQVICKLPQDMSGFQKGLQMKKDYYYGDNVALECEDGYTLEGSSQSQCQSDASWDPPLPKCVSRSNSG
modifications: 125I-iodinated in the biodistribution study
notes: extracellular domain; Untargeted control, expressed in Pichia; also called soluble Crry
As to B1, the binding result is on record as “no binding”.

Source of the values: patent publication US20050265995A1 (MUSC FOUNDATION FOR RESEARCH DEVELOPMENT, published 2005).
